# Assay results as given in article PMC9374335, “C11orf94/Frey is a key regulator for male fertility by controlling Izumo1 complex assembly” (Science Advances, 2022).
# Molecular target: T1, Izumo1-3xFLAG (mouse, UniProt Q9D9J7 22-397)
# T1 construct: Izumo sperm-egg fusion protein 1, mouse; open reading frame amplified from murine testis cDNA; source: HEK293T, transfected, in lysate (CHAPSO); not shown: 3xFLAG, C-terminal, kept
# T1 sequence (looked up): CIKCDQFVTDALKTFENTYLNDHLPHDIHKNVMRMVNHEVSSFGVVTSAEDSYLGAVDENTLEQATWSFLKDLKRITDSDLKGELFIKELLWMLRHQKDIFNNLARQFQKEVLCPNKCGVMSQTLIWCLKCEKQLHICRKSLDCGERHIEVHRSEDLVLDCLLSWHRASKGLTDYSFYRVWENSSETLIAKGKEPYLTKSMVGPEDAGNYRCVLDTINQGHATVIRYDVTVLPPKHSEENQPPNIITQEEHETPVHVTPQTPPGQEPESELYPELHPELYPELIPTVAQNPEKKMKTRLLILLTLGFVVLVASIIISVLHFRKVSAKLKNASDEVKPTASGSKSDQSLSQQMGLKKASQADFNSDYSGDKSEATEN
# Assay: co-IP; CHAPSO lysates of transfected HEK293T cells; 3xFLAG-tagged bait precipitated with anti-FLAG beads; with or without coexpressed C11orf94-3xmyc; Western blot
# Conditions: partners not purified
binder,measurement,value
"murine ACE3 equipped with a C-terminal HA-tag (natural protein, mouse, UniProt D0G895 24-737, looked up, Angiotensin-converting enzyme 3 (ACE3), mouse; open reading frame amplified from murine testis cDNA; also called ACE3-HA; angiotensin-converting enzyme 3; source: HEK293T, transiently transfected, in lysate (CHAPSO); not shown: HA, C-terminal, kept) VGETSLNDFYSEAQAKLFLQFYEQTAQVVLNEFMEATWNYVTNITKQNQKNMLQKEADRSQFMLYFSTRARMFRTDHFLNQDVKRMLRKLQNIDKSALPTEDLLEYNRLLTYMETAYNRAEVCLDEGPCLTLEPDLQEIMATSRDQKELLWAWQGWRDAVGRQLRPVFEDYVRLSNKAAQYNGYKDMGALWRSKYESDTLEEDLEQLYKELQPLYLNLHAYVRRSLYRYYGPELIDLRGPIPAHLLGNMWAQSWNNILDLVLPYPTKAPEDITAIMKIQHWRPEKMFEEANLFFTSMGMLPAPPAFWIKSMMEKPADGREVECHTSSWNFYKFNDFRVKKCTEVTLEDLLSVFHQMGHIQYFLQYQNLSVIYQEGASPAFEEAVGSVIALSVSSHKYLLARGLLSQPHQDSEEEVNFLLGIALEKIAFIPFSYLVDKFRWKIFDGTISKITYNQEWWNFRLKYQGLCPPVPRSDDDFDPGAKFHIPANVPYIRYFLGLILQFQLHEALCEASGHVGPLHQCDNYNSKVAGKILGDLLKLGSSRPWREVLQEVTGESNISTKAFLTYFKPLMDWLVTENVKQGDTLGWPDFSCSFEEKITSKVSFLGTDTEPEQAYLGQWVLLSMSFFMLVLILALGFRLHYLEKQLLDEDTMILKTLPYSYFLGIAMEPHQAARKQWLLLGLCCILMLCCIGLLIRIVTQNTENTPWMKNEGQS",fold change of the co-precipitation in the presence of C11orf94-3xmyc against its absence,~1.7 fold
